In patent US20090175860A1 (Novartis, published 2009):

B1: 04690 (parental anti-cMet Fab antibody) (Fab, V domains shown)
VH: QVQLQQSGPGLVKPSQTLSLTCAISGDSVSSNSAAWGWIRQSPGRGLEWLGRIYYRSKWVNDYAVSVKSRITINPDTSKNQFSLQLNSVTPEDTAVYYCARQGAVYPGPYGFDVWGQGTLVTVSS
VL: DIELTQPPSVSVAPGQTARISCSGDKLGSYFVYWYQQKPGQAPVLVIYDDDNRPSGIPERFSGSNSGNTATLTISGTQAEDEADYYCQSFGISNFYVFGGGTKLTVLG
notes: carries two C-terminal tags (FLAG and 6xHis)
B2: 04687 in IgG format (antibody, V domains shown)
VH: QVQLVQSGAEVKKPGSSVKVSCKASGGTFSSYAISWVRQAPGQGLEWMGGIDPFGTANYAQKFQGRVTITADESTSTAYMELSSLRSEDTAVYYCARVYQDVWGQGTLVTVSS
VL: DIVMTQSPDSLAVSLGERATINCRSSQSILYGINNNFLGWYQQKPGQPPKLLIYWASTRESGVPDRFSGSGSGTDFTLTISSLQAEDVAVYYCQQYYNHPHTFGQGTKVEIKR
B3: 05097 in IgG format (antibody, V domains shown)
VH: QVQLVQSGAEVKKPGSSVKVSCKASGGTFSSYAISWVRQAPGQGLEWMGGIDPFGTANYAQKFQGRVTITADESTSTAYMELSSLRSEDTAVYYCARVYQDVWGQGTLVTVSS
VL: DIVMTQSPDSLAVSLGERATINCRSSQSILYGINNNFLGWYQQKPGQPPKLLIYWASTRESGVPDRFSGSGSGTDFTLTISSLQAEDVAVYYCQQYAFGWTFGQGTKVEIKR
B4: 05098 in IgG format (antibody, V domains shown)
VH: QVQLVQSGAEVKKPGSSVKVSCKASGGTFSSYAISWVRQAPGQGLEWMGGIDPFGTANYAQKFQGRVTITADESTSTAYMELSSLRSEDTAVYYCARVYQDVWGQGTLVTVSS
VL: DIVMTQSPDSLAVSLGERATINCRSSQSILYGINNNFLGWYQQKPGQPPKLLIYWASTRESGVPDRFSGSGSGTDFTLTISSLQAEDVAVYYCLQYSDEPWTFGQGTKVEIKR
B5: 05185 in IgG format (antibody, V domains shown)
VH: QVQLVQSGAEVKKPGSSVKVSCKASGGTFSSYAISWVRQAPGQGLEWMGGIDPIMGTEYAQKFQGRVTITADESTSTAYMELSSLRSEDTAVYYCARVYQDVWGQGTLVTVSS
VL: DIVMTQSPDSLAVSLGERATINCRSSQSILYGINNNFLGWYQQKPGQPPKLLIYWASTRESGVPDRFSGSGSGTDFTLTISSLQAEDVAVYYCQQYAYEPNTFGQGTKVEIKR
B6: 04541 in IgG format (antibody, V domains shown)
VH: QVQLQESGPGLVKPGETLSLTCTVSGGSISSSSYYWNWIRQAPGKGLEWIGEIYFGWTYYNPSLKGRVTISVDTSKNQFSLKLSSVTAEDTAVYYCARGYEFHGYTTFDYWGQGTLVTVSS
VL: DIELTQPPSVSVAPGQTARISCSGDNIGSYYVYWYQQKPGQAPVLVIYDDNDRPSGIPERFSGSNSGNTATLTISGTQAEDEADYYCQSYDFPSIVFGGGTKLTVLG
B7: 04541 (parental anti-cMet Fab antibody) (Fab, V domains shown)
VH: QVQLQESGPGLVKPGETLSLTCTVSGGSISSSSYYWNWIRQAPGKGLEWIGEIYFGWTYYNPSLKGRVTISVDTSKNQFSLKLSSVTAEDTAVYYCARGYEFHGYTTFDYWGQGTLVTVSS
VL: DIELTQPPSVSVAPGQTARISCSGDNIGSYYVYWYQQKPGQAPVLVIYDDNDRPSGIPERFSGSNSGNTATLTISGTQAEDEADYYCQSYDFPSIVFGGGTKLTVLG
notes: as for B1
B8: 04536 in IgG format (antibody, V domains shown)
VH: QVQLVQSGAEVKKPGASVKVSCKASGYTFTGYYMNWVRQAPGQGLEWMGIINPWTGNTNYAQKFQGRVTMTRDTSISTAYMELSSLRSEDTAVYYCARDPGFFYYTPSDLWGQGTLVTVSS
VL: DIELTQPPSVSVAPGQTARISCSGDSIGNKYVHWYQQKPGQAPVLVIYADSDRPSGIPERFSGSNSGNTATLTISGTQAEDEADYYCQAYDSSMLRVFGGGTKLTVLG
B9: 05091 in IgG format (antibody, V domains shown)
VH: QVQLVQSGAEVKKPGASVKVSCKASGYTFTGYYMNWVRQAPGQGLEWMGIINPWTGNTNYAQKFQGRVTMTRDTSISTAYMELSSLRSEDTAVYYCARDPGFFYYTPSDLWGQGTLVTVSS
VL: DIELTQPPSVSVAPGQTARISCSGDSIGNKYVHWYQQKPGQAPVLVIYADSDRPSGIPERFSGSNSGNTATLTISGTQAEDEADYYCQSYAHYHDIWVFGGGTKLTVLG
B10: 04537 in IgG format (antibody, V domains shown)
VH: QVQLVQSGAEVKKPGESLKISCKGSGYSFSNYWIGWVRQMPGKGLEWMGFIFPDTSYTRYSPSFQGQVTISADKSISTAYLQWSSLKASDTAMYYCARVKLITDYWGQGTLVTVSS
VL: DIELTQPPSVSVAPGQTARISCSGDSLRSYFVSWYQQKPGQAPVLVIYDDDDRPSGIPERFSGSNSGNTATLTISGTQAEDEADYYCASWDTLSDVEVFGGGTKLTVLG
B11: 04537 (parental anti-cMet Fab antibody) (Fab, V domains shown)
VH: QVQLVQSGAEVKKPGESLKISCKGSGYSFSNYWIGWVRQMPGKGLEWMGFIFPDTSYTRYSPSFQGQVTISADKSISTAYLQWSSLKASDTAMYYCARVKLITDYWGQGTLVTVSS
VL: DIELTQPPSVSVAPGQTARISCSGDSLRSYFVSWYQQKPGQAPVLVIYDDDDRPSGIPERFSGSNSGNTATLTISGTQAEDEADYYCASWDTLSDVEVFGGGTKLTVLG
notes: as for B1

Legend:
[1] = biological target: T1, full length human c-Met on cells (human, UniProt P08581 25-1390); experiment: flow cytometry, Fab titration on GTL-16 cells
T1 construct: whole, on cells; NCI-H441 for migration; A549 for autophosphorylation; also called human c-Met GTL-16; c-Met on NCI-H441 cells
Description: (§1) In order to further characterize the anti-c-Met antibodies, the affinity to full length human and cynomolgus c-Met is determined. GTL16, CHO cells overexpressing cynomolgus c-Met or rhesus 4 MBr-5 cells are washed, trypsinised, and suspended in PBS containing 3% FCS (3% FCS/PBS) at 4-C. 2-5×10⁵ cells/sample are resuspended in 140 μl of 3% FCS//PBS containing 5 μg/ml of purified anti-cMet Fabs or serial dilutions thereof. As a positive control 5 μg/ml of DO24 (mouse IgG2a), anti-human c-Met is used. The cells are incubated for 30-60 minutes at 4° C. before being pelleted by centrifugation for 2 min at 2000 rpm (716 g) at 4° C. and washed in 200 μl of in chilled 3% FCS/PBS. The cells are again pelleted by centrifugation and the PBS gently removed. Cells are resuspended in 100 μl of goat anti-human IgG (H+L) PE conjugated (Jackson Cat No. 109-116-088) diluted 1:200 in 3% FCS/0.02% NaN₃/PBS; For the positive control goat anti-mouse IgG (H+L)-PE conjugated (Jackson Cat No. 115-116-146) diluted 1:200 in 3% FCS/PBS is used. Samples are incubated in the dark for 30-60 min at 4° C. Following centrifugation and washing in 200 μl of 3% FCS/0.02%/NaN₃/PBS the cells are resuspended in 100 μl of 3% FCS/PBS and assayed using FACS-array or FACS-Calibur.

[2] = biological target: T2, rhesus c-Met on 4MBr-5 cells (rhesus); experiment: flow cytometry, Fab titration on rhesus 4MBr-5 cells
T2 construct: whole, on cells
Description: as §1

recombinant human c-Met [3] = biological target: T3, recombinant human c-Met (human, UniProt P08581 25-932, limits assumed); experiment: SPR (BIAcore), c-Met amine-coupled on CM5 chip, Fab 16-500 nM as analyte
T3 construct: Soluble recombinant protein: immobilised on the CM5 chip in Biacore, in solution in the equilibrium titration; The precursor is cleaved into disulfide-linked alpha and beta subunits; also called Hepatocyte Growth Factor Receptor
Description: (§2) Using these clones, kinetic SPR analysis is performed on a CM5 chip (Biacore, Sweden) which had been coated with a density of ˜400 RU of either recombinant human c-Met, in 10 mM Na-acetate pH 4.5 using standard EDC-NHS amine coupling chemistry. […] PBS (136 mM NaCl, 2.7 mM KCl, 10 mM Na2HPO4 , 1.76 mM KH2PO4 pH 7.4) is used as the running buffer. The Fab preparations are applied in concentration series of 16-500 nM at a flow rate of 20 μl/min. Association phase is set to 60 s and dissociation phase to 120 s.

[4] = biological target: T2, rhesus c-Met on 4MBr-5 cells; experiment: cell-based or functional assay
[5] = biological target: T1, full length human c-Met on cells; experiment: cell-based or functional assay
[6] = biological target: T2, rhesus c-Met on 4MBr-5 cells; experiment: cell-based or functional assay; remark: listed apart in the source
[7] = biological target: T1, full length human c-Met on cells; experiment: cell-based or functional assay; remark: listed apart in the source
[8] = biological target: T1, full length human c-Met on cells; experiment: cell-based or functional assay; remark: listed apart in the source
[9] = biological target: T2, rhesus c-Met on 4MBr-5 cells; experiment: cell-based or functional assay; remark: listed apart in the source
[10] = biological target: T1, full length human c-Met on cells; experiment: cell-based or functional assay; remark: listed apart in the source
[11] = biological target: T4, cynomolgus c-Met on CHO cells (cynomolgus, UniProt A0A2K5UM36 25-1381, The natural precursor is cleaved into disulfide-linked alpha and beta subunits. It is given here as one mature chain, following the entry's CHAIN feature.); experiment: flow cytometry, Fab on CHO-cyno c-Met cells
T4 construct: also called cyno c-Met; CHO-cMet cyno
Description: as §1

recombinant human c-Met [12] = biological target: T3, recombinant human c-Met; experiment: SPR (BIAcore), Fab on immobilised human c-Met
Description: as §2

[13] = biological target: T1, full length human c-Met on cells; experiment: flow cytometry, Fab on GTL-16 cells
Description: as §1

T3 sequence (P08581 25-932 limits assumed): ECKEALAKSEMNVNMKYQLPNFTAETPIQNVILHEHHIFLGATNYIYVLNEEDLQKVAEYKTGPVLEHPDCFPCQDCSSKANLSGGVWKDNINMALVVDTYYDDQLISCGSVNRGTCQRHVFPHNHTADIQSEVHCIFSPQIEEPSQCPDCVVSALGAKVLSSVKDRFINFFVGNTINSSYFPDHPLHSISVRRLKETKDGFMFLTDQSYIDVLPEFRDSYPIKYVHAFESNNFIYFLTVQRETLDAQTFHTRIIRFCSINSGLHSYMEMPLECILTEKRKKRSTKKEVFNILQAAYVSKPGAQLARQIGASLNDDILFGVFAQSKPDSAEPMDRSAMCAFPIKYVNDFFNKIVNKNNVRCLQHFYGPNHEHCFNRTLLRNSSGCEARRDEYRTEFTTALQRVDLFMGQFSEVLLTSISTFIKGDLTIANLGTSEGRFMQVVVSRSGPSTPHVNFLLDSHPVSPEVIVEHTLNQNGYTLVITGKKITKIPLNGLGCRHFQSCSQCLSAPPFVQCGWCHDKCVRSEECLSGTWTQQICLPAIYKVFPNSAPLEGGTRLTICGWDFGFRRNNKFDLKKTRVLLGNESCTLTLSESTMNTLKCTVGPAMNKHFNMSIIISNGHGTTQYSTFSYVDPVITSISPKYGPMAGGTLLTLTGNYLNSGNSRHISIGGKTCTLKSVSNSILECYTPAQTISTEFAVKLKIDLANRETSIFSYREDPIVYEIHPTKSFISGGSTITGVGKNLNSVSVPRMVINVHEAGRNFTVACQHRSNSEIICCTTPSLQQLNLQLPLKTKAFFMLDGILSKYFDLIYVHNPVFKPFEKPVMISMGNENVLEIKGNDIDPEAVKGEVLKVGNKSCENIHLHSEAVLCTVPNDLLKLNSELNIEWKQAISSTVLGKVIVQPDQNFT
T1 sequence (P08581 25-1390): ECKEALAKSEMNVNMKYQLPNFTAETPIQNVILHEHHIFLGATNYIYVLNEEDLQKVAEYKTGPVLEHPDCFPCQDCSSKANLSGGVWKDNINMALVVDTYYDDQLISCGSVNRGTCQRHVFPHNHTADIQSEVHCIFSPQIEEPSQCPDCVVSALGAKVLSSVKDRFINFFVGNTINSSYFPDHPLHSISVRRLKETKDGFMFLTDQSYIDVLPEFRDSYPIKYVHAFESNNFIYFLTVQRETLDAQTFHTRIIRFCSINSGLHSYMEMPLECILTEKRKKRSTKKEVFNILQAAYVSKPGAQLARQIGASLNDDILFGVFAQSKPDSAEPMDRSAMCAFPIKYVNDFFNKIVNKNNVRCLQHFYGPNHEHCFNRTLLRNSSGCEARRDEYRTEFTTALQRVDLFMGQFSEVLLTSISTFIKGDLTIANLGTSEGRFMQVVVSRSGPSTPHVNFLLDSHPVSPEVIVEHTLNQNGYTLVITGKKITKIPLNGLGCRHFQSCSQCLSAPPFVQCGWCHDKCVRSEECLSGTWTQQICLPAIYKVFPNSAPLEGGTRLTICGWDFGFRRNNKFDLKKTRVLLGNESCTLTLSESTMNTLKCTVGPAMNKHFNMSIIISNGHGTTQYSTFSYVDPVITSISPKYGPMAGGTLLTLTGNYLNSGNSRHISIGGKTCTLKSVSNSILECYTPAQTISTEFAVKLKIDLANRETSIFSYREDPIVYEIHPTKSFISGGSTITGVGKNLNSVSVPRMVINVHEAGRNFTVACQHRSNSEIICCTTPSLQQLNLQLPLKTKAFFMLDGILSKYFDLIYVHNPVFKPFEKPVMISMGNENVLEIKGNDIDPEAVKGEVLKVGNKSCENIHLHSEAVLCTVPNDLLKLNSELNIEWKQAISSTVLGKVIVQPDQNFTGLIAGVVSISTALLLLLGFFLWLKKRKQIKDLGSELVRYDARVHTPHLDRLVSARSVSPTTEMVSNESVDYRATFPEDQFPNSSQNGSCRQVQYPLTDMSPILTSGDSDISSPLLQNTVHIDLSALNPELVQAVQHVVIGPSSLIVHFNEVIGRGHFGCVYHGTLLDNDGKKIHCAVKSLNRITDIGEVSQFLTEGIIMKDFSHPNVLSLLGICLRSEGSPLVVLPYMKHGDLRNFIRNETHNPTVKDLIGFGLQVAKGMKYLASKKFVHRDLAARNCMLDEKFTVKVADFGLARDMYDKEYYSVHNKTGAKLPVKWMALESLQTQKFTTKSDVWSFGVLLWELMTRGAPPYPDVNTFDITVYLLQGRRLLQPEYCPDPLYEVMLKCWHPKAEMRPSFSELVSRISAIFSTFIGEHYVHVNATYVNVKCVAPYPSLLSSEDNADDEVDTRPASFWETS
T4 sequence (A0A2K5UM36 entry or part of it limits assumed): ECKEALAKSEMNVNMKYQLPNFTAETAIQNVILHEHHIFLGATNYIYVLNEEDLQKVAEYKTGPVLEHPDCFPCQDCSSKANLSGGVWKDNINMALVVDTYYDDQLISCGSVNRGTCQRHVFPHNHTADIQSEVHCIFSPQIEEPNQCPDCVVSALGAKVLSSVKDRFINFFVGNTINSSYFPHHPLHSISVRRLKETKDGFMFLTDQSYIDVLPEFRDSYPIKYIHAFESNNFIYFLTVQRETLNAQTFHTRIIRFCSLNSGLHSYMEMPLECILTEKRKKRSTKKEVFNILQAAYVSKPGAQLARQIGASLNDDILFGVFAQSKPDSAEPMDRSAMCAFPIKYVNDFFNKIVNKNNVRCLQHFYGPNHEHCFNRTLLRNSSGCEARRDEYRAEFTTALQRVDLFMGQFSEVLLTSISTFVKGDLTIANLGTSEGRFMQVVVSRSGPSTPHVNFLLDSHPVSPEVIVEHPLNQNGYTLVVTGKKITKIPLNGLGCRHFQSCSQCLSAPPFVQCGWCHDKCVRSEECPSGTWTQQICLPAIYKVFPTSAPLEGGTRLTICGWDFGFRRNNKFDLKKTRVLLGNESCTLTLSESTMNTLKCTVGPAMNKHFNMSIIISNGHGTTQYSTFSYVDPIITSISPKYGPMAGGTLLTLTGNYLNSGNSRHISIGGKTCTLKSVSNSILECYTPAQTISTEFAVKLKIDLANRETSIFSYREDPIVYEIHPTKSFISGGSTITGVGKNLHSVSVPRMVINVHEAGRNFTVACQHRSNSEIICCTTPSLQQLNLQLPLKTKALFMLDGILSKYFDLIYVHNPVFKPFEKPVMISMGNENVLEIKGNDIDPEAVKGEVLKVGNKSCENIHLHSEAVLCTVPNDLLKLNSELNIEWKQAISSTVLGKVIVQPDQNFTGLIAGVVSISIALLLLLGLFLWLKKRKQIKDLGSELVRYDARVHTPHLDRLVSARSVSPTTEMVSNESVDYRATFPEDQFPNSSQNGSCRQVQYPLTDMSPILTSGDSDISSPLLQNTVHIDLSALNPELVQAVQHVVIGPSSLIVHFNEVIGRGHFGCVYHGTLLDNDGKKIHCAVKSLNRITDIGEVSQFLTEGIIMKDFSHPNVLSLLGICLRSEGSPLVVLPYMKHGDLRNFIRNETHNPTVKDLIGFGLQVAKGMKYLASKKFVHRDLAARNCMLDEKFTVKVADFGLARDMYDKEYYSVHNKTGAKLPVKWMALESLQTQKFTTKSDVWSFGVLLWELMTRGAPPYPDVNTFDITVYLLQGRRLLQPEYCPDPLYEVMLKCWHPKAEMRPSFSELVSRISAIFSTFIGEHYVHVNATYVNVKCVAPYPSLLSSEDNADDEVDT

Binder | EC50 [nM] Inhibition of HGF driven proliferation 4MBr-5 [4] [nM] | EC50 [nM] Inhibition of HGF driven migration NCI-H441 [5] [nM] | EC50 [nM] 4Mbr-5 Proliferation IgG [6] [nM] | EC50 [nM] NCI-H441 Migration IgG [7] [nM] | EC50 [nM] Inhibition of HGF driven migration NCI-H441 in 1% serum [8] [nM] | EC50 [nM] Inhibition of HGF driven proliferation 4MBr-5 in 10% serum [9] [nM] | EC50 [nM] Inhibition of HGF stimulated c-Met autophosphorylation in A549 [10] [nM] | further results
B1 | – | – | – | – | – | – | – | Kd [1]: 1.1 nM; Kd [2]: 0.1 nM; Kd (recombinant human c-Met [3]): 66 nM
B2 | 6 | 1.68 | 6 | 1.68 | – | – | – | –
B3 | – | – | – | – | 0.76 | 1.6 | 0.166 | –
B4 | – | – | – | – | 0.73 | 0.5 | 0.419 | –
B5 | – | – | – | – | 1.2 | 0.13 | 0.219 | –
B6 | 200 | 0.27 | 200 | 0.27 | – | – | – | –
B7 | – | – | – | – | – | – | – | Kd [11]: 0.6 nM; Kd [1]: 0.5 nM; Kd [2]: 0.1 nM; Kd (recombinant human c-Met [3]): 2.6 nM; Kd (recombinant human c-Met [12]): 2.6 nM; Kd [13]: 1.7 nM
B8 | 4 | 0.61 | 4 | 0.61 | – | – | – | –
B9 | – | – | – | – | 0.61 | 1.3 | 0.193 | –
B10 | 150 | 0.14 | 150 | 0.14 | – | – | – | –
B11 | – | – | – | – | – | – | – | Kd [11]: 12.7 nM; Kd [1]: 2.6 nM; Kd [2]: 0.1 nM; Kd (recombinant human c-Met [3]): 1.7 nM; Kd (recombinant human c-Met [12]): 1.7 nM; Kd [13]: 1.5 nM
